Measurements reported in patent US20180188270A1, “DIAGNOSTIC TEST FOR ALZHEIMER'S DISEASE BASED ON IDENTIFICATION OF A PROTEOLYTIC PATHWAY” (Health Research, Inc., priority 2015, published 2018).
“And” between values parts separate entries of the source, which are not always exact repeats. Equal entries are not always repeated.

Columns and labels:
FXa = target: T1, FXa (Homo sapiens, UniProt P00742); assay: hPEPD stability on incubation with FXa; assay type: biochemical; conditions: hPEPD 90 nM, FXa 100 nM
T1 construct: purchased Haematologic Technologies HCXA-0060
T1 sequence (P00742 41-179 limits assumed): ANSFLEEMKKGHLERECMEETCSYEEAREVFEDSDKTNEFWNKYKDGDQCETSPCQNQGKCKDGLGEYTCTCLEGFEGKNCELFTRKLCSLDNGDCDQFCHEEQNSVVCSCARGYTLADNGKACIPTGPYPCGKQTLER
T1 sequence (P00742 235-488 limits assumed): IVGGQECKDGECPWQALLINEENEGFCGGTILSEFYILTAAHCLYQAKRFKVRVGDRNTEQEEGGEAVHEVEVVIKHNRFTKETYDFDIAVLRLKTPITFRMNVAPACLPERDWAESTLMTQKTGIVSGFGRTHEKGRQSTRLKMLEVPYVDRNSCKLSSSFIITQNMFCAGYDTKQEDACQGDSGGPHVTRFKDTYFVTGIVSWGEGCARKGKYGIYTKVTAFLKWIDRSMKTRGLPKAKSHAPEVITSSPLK
Protocol: (§1) Measurement of in vitro degradation of hPEPD, mSRC and hAβ1-42. To determine whether a blood coagulation factor degrades hPEPD, hPEPD at 90 nM or lower concentrations (10 or 40 nM) was incubated with solvent, 100 nM FIIa, 100 nM FXa, 10 nM FVIIa with or without 10 nM TF, or 10 nM FVII with or without 10 nM TF and/or 100 nM FIIa in PBS in a total volume of 100 μl containing 5 mM CaCl2 for desired times at RT. […] To compare the hPEPD-degrading activities of different plasma samples, 9.2 pmol of hPEPD was incubated with 100 μl of plasma from WT mice or FVII^tTA/tTA mice at RT, with or without FIIa or FXa (10 pmol), and to maximize detection of any activity, all incubations lasted for 24 h. […] To measure remaining hPEPD, the incubated samples were cleared of potential fibrin clots by centrifugation and then analyzed by SDS-PAGE and silver staining (using the LC 6070 kit from Invitrogen), IB or measurement of hPEPD enzymatic activity. hPEPD enzymatic activity was measured using glycyl-proline as a substrate (as described in Zbucka et al., Folia Histochem Cytobiol 2007; 45 Suppl 1: S181-185). The precipitates from each incubated sample were washed with PBS twice and then resuspended in 2.5% SDS (20 μper sample); each solution was mixed with 10 μl loading dye and analyzed for hPEPD by IB, using pure hPEPD as a standard and factor FXIIIa as a binding control, respectively.

FVII = target: T2, FVII (Homo sapiens, UniProt P08709); assay: hPEPD degradation by FVII with or without TF and/or FIIa; assay type: biochemical; conditions: 24 h
T2 construct: purchased Haematologic Technologies HCVII-0030
T2 sequence (P08709 61-466): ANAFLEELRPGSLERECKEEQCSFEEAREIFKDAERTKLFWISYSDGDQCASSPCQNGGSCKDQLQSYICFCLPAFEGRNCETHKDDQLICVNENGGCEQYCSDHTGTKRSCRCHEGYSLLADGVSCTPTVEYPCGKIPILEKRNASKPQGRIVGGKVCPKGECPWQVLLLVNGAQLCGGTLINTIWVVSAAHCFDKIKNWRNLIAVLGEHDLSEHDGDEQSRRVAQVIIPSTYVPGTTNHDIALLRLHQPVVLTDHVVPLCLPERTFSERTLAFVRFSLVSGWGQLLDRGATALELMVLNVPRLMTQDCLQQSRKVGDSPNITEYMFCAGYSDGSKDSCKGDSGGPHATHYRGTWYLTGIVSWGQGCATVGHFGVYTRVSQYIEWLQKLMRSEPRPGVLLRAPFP
Protocol: as §1

plasma PEPD = assay: Plasma PEPD concentration in mice by ELISA; assay type: in vivo, mouse; conditions: for average plasma level of total PEPD (hPEPD plus mPEPD), increase: hPEPD 10 mg/kg i.p., vs control
Protocol: Animal studies. All animal studies were performed in accordance with protocols approved by the Institutional Animal Care and Use Committee at Roswell Park Cancer Institute. Male mice at 7-8 weeks of age were used, including wild type (WT) mice (C57BL/6), and mice deficient in FXII (C57BL/6-FXII^−/−) or FVII (C57BL/6-FVII^tTA/tTA). WT C57BL/6 mice were purchased from Taconic. C57BL/6-FXII^−/− mice and C57BL/6-FVII^tTA/tTA mice were bred in our own facility and genotyped. The breeders were kindly provided by Dr. Francis J. Castellino at University of Notre Dame. […] CCl4 was dissolved in corn oil, whereas all other substances were dissolved in PBS. The vehicle or the test substance was given to mice in 0.1 ml volume per 20 g body weight. Blood was collected from the mice at specific times by cardiac puncture at the time of sacrifice by carbon dioxide, and heart, liver and kidney were also collected from some of the mice. Blood was collected into K3 EDTA-containing tubes (Multivette 600 from Sarstedt), unless specified otherwise. All blood samples were promptly centrifuged to obtain plasma samples.
Measurement of plasma levels of PEPD, SRC, Aβ1-42 and FI. […] The plates were washed three times with phosphate buffered saline tween-20 (PBST) and the coated wells were blocked by incubation with 200 μl/well of 1% BSA in PBS for at least 2 h at RT. After another round of wash with PBST, the plates were incubated with appropriately diluted Aβ1-42 standard, SRC standard or plasma samples (100 μl/well) for 2 h at RT. The plates were then washed with PBST and incubated with an anti-Aβ1-42 rabbit polyclonal antibody (sc-9129) or anti-SRC rabbit monoclonal antibody (2123) at 100 μl/well for 2 h at RT. The plates were washed again with PBST, and each well was incubated with a goat anti-rabbit IgG-HRP conjugate (100 μl) for 1 h at RT. After yet another round of wash with PBST, each well was incubated with 100 μl of HRP substrate 3,3′,5,5′-tetramethylbenzedine (Cell Signaling, 7004). Upon adequate color development, 100 μl of stop solution (Cell Signaling, 7002) was added to each well, and absorbance at 450 nm was promptly recorded by a microtiter plate reader. Plasma FI concentration was determined using an assay kit (400-374-130050) from GenWay Biotech, following the manufacturer's instruction.

FIIa = target: T3, FIIa (Homo sapiens, UniProt P00734); assay: hPEPD stability on incubation with FIIa; assay type: biochemical; conditions: hPEPD 90 nM, FIIa 100 nM
T3 construct: purchased Haematologic Technologies HCT-0020
Protocol: as §1

FXII = FXII activation, chromogenic assay; assay type: biochemical, human
Protocol: Measurement of FXII activation. […] FXII activation was followed for 3 h at RT by monitoring the conversion of the chromogenic substrate at 405 nm by a microtiter plate reader.
Each value is mean±SD (n=3).

B1: hPEPD: recombinant human prolidase (PEPD), 6xHis tagged to the carboxy terminus (protein, UniProt P12955 2-493, looked up)
Xaa-Pro dipeptidase: AAATGPSFWLGNETLKVPLALFALNRQRLCERLRKNPAVQAGSIVVLQGGEETQRYCTDTGVLFRQESFFHWAFGVTEPGCYGVIDVDTGKSTLFVPRLPASHATWMGKIHSKEHFKEKYAVDDVQYVDEIASVLTSQKPSVLLTLRGVNTDSGSVCREASFDGISKFEVNNTILHPEIVECRVFKTDMELEVLRYTNKISSEAHREVMKAVKVGMKEYELESLFEHYCYSRGGMRHSSYTCICGSGENSAVLHYGHAGAPNDRTIQNGDMCLFDMGGEYYCFASDITCSFPANGKFTADQKAVYEAVLRSSRAVMGAMKPGVWWPDMHRLADRIHLEELAHMGILSGSVDAMVQAHLGAVFMPHGLGHFLGIDVHDVGGYPEGVERIDEPGLRSLRTARHLQPGMVLTVEPGIYFIDHLLDEALADPARASFLNREVLQRFRGFGGVRIEEDVVVTDSGIELLTCVPRTVEEIEACMAGCDKAFTPFSGPK
modifications: C-terminal 6xHis tag
notes: recombinant human prolidase (PEPD), 6xHis tagged to the carboxy terminus
With B1 as the molecule, how does the “effect of FXa on hPEPD stability” value (FXa) read?
Its value is “had no effect on hPEPD stability”.

What about the “hPEPD degradation by FVII with or without TF after adding FIIa” value (FVII; FIIa 100 nM) of the same molecule?
Its value is “caused marked hPEPD degradation”.

What about the “proteolysis of hPEPD by FVII with or without TF” value (FVII; FVII 10 nM, TF 10 nM) of the same molecule?
The value was “showed no proteolytic activity towards hPEPD”.

And the “plasma level of total PEPD, increase” value (plasma PEPD; FVII tTA/tTA mice, hPEPD 0.2 mg/kg i.p., 6 h)?
Its value is 12.0 fold.

And the “plasma level of total PEPD, increase” value (plasma PEPD; FXII−/− mice, hPEPD 0.2 mg/kg i.p., 6 h, no EP)?
The value was 12.5 fold.

And the “plasma level of total PEPD, increase” value (plasma PEPD; FXII−/− mice, hPEPD 4 mg/kg i.p., 24 h)?
The value was 134.6 fold.

And the “average plasma level of total PEPD, of control” value (plasma PEPD; WT mice, hPEPD 0.2 mg/kg i.p., 1 h)?
The value was 51%.

What about the “plasma level of total PEPD, decrease” value (plasma PEPD; WT mice, hPEPD 0.2 mg/kg i.p., 6 h, no EP) of the same molecule?
The value was 66% and 56.3%.

And the “average plasma level of total PEPD, of control” value (plasma PEPD; WT mice, hPEPD 0.2 mg/kg i.p., 24 h)?
The value was 46%.

And the “plasma level of total PEPD, increase” value (plasma PEPD; WT mice, hPEPD 4 mg/kg i.p., 24 h)?
Its value is 3.3 fold.

And the “average plasma level of total PEPD (hPEPD plus mPEPD), increase” value (plasma PEPD; WT mice, 1 h)?
The value was 19.4 fold.

And the “average plasma level of total PEPD (hPEPD plus mPEPD), increase” value (plasma PEPD; WT mice, 24 h)?
Its value is 15.1 fold.

What about the “plasma level of total PEPD, difference between FVII tTA/tTA and WT mice” value (plasma PEPD; hPEPD 0.2 mg/kg i.p., 6 h) of the same molecule?
The value was 68.9 fold.

What about the “average plasma level of total PEPD, higher in FXII−/− mice than in WT mice” value (plasma PEPD; hPEPD 0.2 mg/kg i.p., 6 h, no EP) of the same molecule?
Its value is 53.8 fold.

What about the “effect of FIIa on hPEPD stability” value (FIIa) of the same molecule?
The value was “had no effect on hPEPD stability”.

And the FXII activation (FXII; FXII 0.97 nM, ZnCl2-containing PBS, RT)?
The FXII activation was “did not differ in activating FXII”.

And the “Zn2+ requirement of FXII activation” value (FXII; with or without ZnCl2 15 μM, IB)?
Its value is “required Zn^2+”.
